Laboratory results from patent US20230192897A1 (NUMAB THERAPEUTICS, published 2023).
Where “and” joins values, the source holds several entries; their conditions need not be identical. Identical values can stand only once. Like-named read-outs stand apart in the source and are kept apart here.

Assays:
[1] = target: T1, CD137 on Jurkat NFkB reporter cells (human, UniProt Q07011 24-255); test: cell-based or functional assay
[2] = target: T1, CD137 on Jurkat NFkB reporter cells; test: cell-based or functional assay; remark: listed apart in the source
[3] = target: T1, CD137 on Jurkat NFkB reporter cells; test: cell-based or functional assay; remark: listed apart in the source
biotinylated human PDL1 [4] = target: T2, biotinylated human PDL1 (human, UniProt Q9NZQ7 19-238, limits assumed, biotinylated); test: competition ELISA PD-1/PDL1
T2 construct: also called biotinylated PDL1

biotinylated human PDL1 [5] = target: T2, biotinylated human PDL1; test: competition ELISA B7.1/PDL1
Outline: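 IC₅₀ was derived by four-parameter logistic fitting of reference-subtracted A450/690 readings. The signal came from streptavidin-polyHRP40 (10 ng/ml) with a 6-minute TMB reaction detecting biotinylated PDL1 bound to the plate. Pre-mixed samples sat 1 h at RT before a 1.5 h plate incubation.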

human PDL1 on cells [6] = target: T3, human PDL1 on cells (human, UniProt Q9NZQ7 19-290); test: cell-based or functional assay
[7] = target: T1, CD137 on Jurkat NFkB reporter cells; test: cell-based or functional assay; remark: listed apart in the source
[8] = target: cynomolgus CD137-Fc chimeric protein (cynomolgus monkey, UniProt A9YYE7 24-186); test: SPR
Outline: (§1)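 Kinetics were fitted with a one-to-one Langmuir model to give apparent ka, kd and KD. Binders at 0.12-90 nM (three-fold series) flowed 3 min, with 10 min dissociation and 3 M MgCl₂ regeneration, on a Biacore T200.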

Fc tagged human PDL1 = target: T4, Fc tagged human PDL1 (human, UniProt Q9NZQ7 19-239); test: SPR
T4 construct: Bought (Sino Biological, cat. 10084-H02H); captured on the SPR chip; also called PDL1-Fc chimeric protein
Outline: as §1

Fc tagged human CD137 = target: T5, Fc tagged human CD137 (human, UniProt Q07011 24-186); test: SPR
T5 construct: also called CD137-Fc chimeric protein
Outline: as §1

[9] = target: T6, mouse CD137-Fc chimeric protein (mouse, UniProt P20334 24-187, limits assumed); test: SPR
T6 sequence (looked up): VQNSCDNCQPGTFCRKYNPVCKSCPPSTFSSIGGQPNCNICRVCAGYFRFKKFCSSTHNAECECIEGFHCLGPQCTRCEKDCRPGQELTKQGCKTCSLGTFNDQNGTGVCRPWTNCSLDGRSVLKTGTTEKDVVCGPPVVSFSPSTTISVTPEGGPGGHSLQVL
Outline: as §1

[10] = target: T1, CD137 on Jurkat NFkB reporter cells; test: cell-based or functional assay; remark: listed apart in the source
[11] = target: T1, CD137 on Jurkat NFkB reporter cells; test: cell-based or functional assay; remark: listed apart in the source
[12] = target: T1, CD137 on Jurkat NFkB reporter cells; test: cell-based or functional assay; remark: listed apart in the source
[13] = target: T1, CD137 on Jurkat NFkB reporter cells; test: cell-based or functional assay; remark: listed apart in the source
human PDL1 on cells [14] = target: T3, human PDL1 on cells; test: cell-based or functional assay; remark: listed apart in the source

| EC50, NFkB reporter, CHO-PDL1 [2] | IC50 (biotinylated human PDL1 [4]) [ng/mL] | rel. IC50 (IC50 avelumab/IC50 test) (biotinylated human PDL1 [4]) [fold] | koff (Fc tagged human PDL1) [s⁻¹] | koff (Fc tagged human CD137) [s⁻¹] | kon (Fc tagged human CD137) [M⁻¹ s⁻¹] | EC50, NFkB reporter, HCC827 without IFNg [10] | EC50, NFkB reporter, HCC827 with IFNg [12] | IC50 (ng/ml), NFkB reporter, CHO-PD-L1 [13] [ng/mL] | IC50 (ng/ml), NFkB reporter, HCC827 + IFNg [13] [ng/mL] | IC50 (ng/ml), NFkB reporter, HCC827 - IFNg [13] [ng/mL] | max. activation (%), NFkB reporter, CHO-PD-L1 [13] [%] | max. activation (%), NFkB reporter, HCC827 + IFNg [13] [%] | max. activation (%), NFkB reporter, HCC827 - IFNg [13] [%] | rel. IC50 (urelumab/test), NFkB reporter, CHO-PD-L1 [13] [fold] | rel. IC50 (urelumab/test), NFkB reporter, HCC827 + IFNg [13] [fold] | rel. IC50 (urelumab/test), NFkB reporter, HCC827 - IFNg [13] [fold] | further results | Binder |
| --- | --- | --- | --- | --- | --- | --- | --- | --- | --- | --- | --- | --- | --- | --- | --- | --- | --- | --- |
| 5.13 ng/mL and 4.86 ng/mL and 6.3 ng/mL | 8.35 | 0.17 | 0.00014 | 0.00076 | 240000 | 11.5 ng/mL and 13.1 ng/mL and 13 ng/mL | 9.27 ng/mL and 8.88 ng/mL and 9.23 ng/mL | 11.7 | 8.88 | 13.1 | 499 | 134 | 111 | 6.75 | 16.3 | 8.42 | EC50, NFkB reporter, HCC827 with IFNg, 24 h [1]: 7.51 ng/mL; EC50, NFkB reporter, HCC827 without IFNg, 24 h [1]: 9.52 ng/mL; EC50, NFkB reporter, CHO-PDL1, 24 h [3]: 13.8 ng/mL; EC50, NFkB reporter, CHO-PDL1, 24 h, +HSA [3]: 14.8 ng/mL; IC50 (biotinylated human PDL1 [5]): 12.2 ng/mL; rel. IC50 (IC50 avelumab/IC50 test) (biotinylated human PDL1 [5]): 0.59 fold; IC50 (ng/ml), NF-AT potency assay (human PDL1 on cells [6]): 137 ng/mL; rel. IC50 (avelumab/test) (human PDL1 on cells [6]): 0.28 fold; EC50, NFkB reporter, CHO-PDL1, 6 h [7]: 7.84 ng/mL; EC50, NFkB reporter, CHO-PDL1, 6 h, +HSA [7]: 7.92 ng/mL; Kd [8]: 2.1 nM; koff [8]: 0.0007 s⁻¹; kon [8]: 340000 M⁻¹ s⁻¹; kon (Fc tagged human PDL1): 2.1e+06 M⁻¹ s⁻¹; Kd [9]: 600 nM; koff [9]: 0.18 s⁻¹; kon [9]: 290000 M⁻¹ s⁻¹; EC50, NFkB reporter, CHO-PDL1 [11]: 11.7 ng/mL | PRO885 (bispecific antibody, scDb anti-PDL1 x CD137; also called 38-02-A04 sc01 scDb-i/33-03-G02 sc01 scDb-o) DIQMTQSPSSLSASVGDRVTITCQASQSINDYLAWYQQKPGKAPKLLIYKASTLASGVPSRFSGSGSGTDFTLTISSLQPEDFATYYCQQGYIITDIDNVFGTGTKVTVLGGGGGSQVQLQESGPGLVKPSETLSLTCKVSGFSFSNSYWICWIRQPPGKGLEWIGCTFVGSSDSTYYANWAKGRVTISVDSSKNQFSLKLSSVTAADTAVYYCARHPSDAVYGYANNLWGQGTLVTVSSGGGGSGGGGSGGGGSGGGGSIQMTQSPSSLSASVGDRVTITCQASQSINNVLAWYQQKPGKAPKLLIYRASTLASGVPSRFSGSGSGTDFTLTISSLQPEDFATYYCQSSYGNYGDFGTGTKVTVLGGGGGSQVQLQESGPGLVKPSETLSLTCKVSGFSFSSGYDMCWIRQPPGKGLEWIGCVVAGSVDITYYASWAKGRVTISVDSSKNQFSLKLSSVTAADTAVYYCARKDAYSDAFNLWGQGTLVTVSS |
| 6 ng/mL | 1.28 | 1.59 | < 1e-05 | 0.00075 | 210000 | 6.97 ng/mL | 5.48 ng/mL | 6 | 5.48 | 6.97 | 242 | 208 | 135 | 14.4 | 19.7 | 16 | Top of curve fit, NFkB reporter, CHO-PDL1 [2]: 242; IC50, NFAT reporter gene assay (human PDL1 on cells [14]): 48.1 ng/mL; Kd (Fc tagged human PDL1): ≤ 0.0035 nM; fold improvement in affinity against PRO885 (CDR graft) (Fc tagged human PDL1): 20 fold; Kd (Fc tagged human CD137): 3.5 nM; binding result [9]: no binding; Top of curve fit, NFkB reporter, HCC827 without IFNg [10]: 135; Top of curve fit, NFkB reporter, HCC827 with IFNg [12]: 208 | PRO1126 (bispecific antibody, scDb; also called 38-02-A04 sc01 scDb-i/33-03-G02 sc03 Full scDb-o) DFQLTQSPSSLSASVGDRVTITCQASQSINDYLAWYQQKPGKSPKLLIYKASTLASGVPSRFSGSGSGTDFTLTISSLQPEDFATYYCQQGYIITDIDNVFGTGTKVTVLGGGGGSQVQLQESGPGLVKPSETLSLTCKVSGFSFSNSYWICWIRQPPGKGLEWIGCTFVGSSDSTYYANWAKGRVTISVDSSKNQFSLKLSSVTAADTAVYYCARHPSDAVYGYANNLWGQGTLVTVSSGGGGSGGGGSGGGGSGGGGSIQMTQSPSSLSASVGDRVTITCQASQSINNVLAWYQQKPGKAPKLLIYRASTLASGVPSRFSGSGSGTDFTLTISSLQPEDFATYYCQSSYGNYGDFGTGTKVTVLGGGGGSQSQLQESGPGLVKPSETLSLTCKASGFSFSSGYDMCWVRQPPGKGLEWIACVVAGSVDITYYASWAKGRVTISKDSSKNQVSLKLSSVTAADTAVYFCARKDAYSDAFNLWGQGTLVTVSS |
